pKd: −log10 of the molar value. One block for each substance: values may come before it.
Legend:
Experiment in all cases: AUC
[1] = biological target: BirA D176A (Escherichia coli) (UniProt P06709)
[2] = biological target: BirA G142A (Escherichia coli) (UniProt P06709)
[3] = biological target: BirA I280A (Escherichia coli) (UniProt P06709)
[4] = biological target: BirA K172A (Escherichia coli) (UniProt P06709)

pKd [1]: < 2.22
Substance: BirA D176A (from UniProt P06709 1-321) (enzyme)

pKd [2]: < 1.77
Substance: BirA G142A (from UniProt P06709 1-321) (enzyme)

pKd [3]: < 2.40
Substance: BirA I280A (from UniProt P06709 1-321) (enzyme)

pKd [4]: < 3.15
Substance: BirA K172A (from UniProt P06709 1-321) (enzyme)
